From the supplement of paper PMC12764529
± gives the half width of the 95% confidence interval.

What was measured:
[1] = folding stability dG unfold from trypsin proteolysis; higher = more stable
Outline: (§1)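 Unfolding free energy was derived, per protease or combined, against a sequence-predicted unfolded-state K50 and a shared folded-state K50, starting from K50 inferred by Bayesian fitting of sequencing counts. Digestion with trypsin and chymotrypsin was carried out on designed mini-proteins under 80 residues without cysteine in a PA-tagged cDNA display construct. Only designs with AlphaFold2 dimer inter-PAE above 15 were kept.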

[2] = folding stability dG unfold from chymotrypsin proteolysis; higher = more stable
Outline: as §1

[3] = folding stability dG unfold (combined trypsin and chymotrypsin); higher = more stable
Outline: as §1

Sequence | folding stability dG unfold [1] | folding stability dG unfold [2] | folding stability dG unfold [3]
SAGMISSVSSEPSTNTTTATIPETGKTITYNPETGTLTVTPPTGNPSVIPVETPEEAERAMEEVIAELSSAG [r5_467_JUSTAS] | 1.11 ± 0.041 kcal/mol | 0.228 ± 0.038 kcal/mol | 0.816 ± 0.079 kcal/mol
SAGGSAGGSAGGMIRIVNEETGEEIEISPEELEELLAKSDKPVRIEVDGKVIPLDAKDLSAGGSAGGSAGGS [r10_839_TrROS_Hall] | 0.85 ± 0.03 kcal/mol | -0.268 ± 0.054 kcal/mol | 0.352 ± 0.091 kcal/mol
SAGGSAGGSKKEYLVLVYNPATGEPFPILAPDDVPFEELAKKIADEILKGLPKDVKIEFVKLGSAGGSAGGS [r20_213_TrMRF] | 0.808 ± 0.086 kcal/mol | 0.795 ± 0.061 kcal/mol | 0.874 ± 0.17 kcal/mol
SAGGSVTITSITSIDTSSLSPDSVVTADVPDGKPVLIKGKVPPDGSVILTFYTPDGKPVATFTIPSSAGGSA [r2_323_JUSTAS] | 0.508 ± 0.017 kcal/mol | 0.779 ± 0.056 kcal/mol | 0.669 ± 0.06 kcal/mol
SEKIVIEFPNPEEATVELIKSIIKPYLEPGEKVKIKVFSKDGKPLFEKELEFNEVEEVPKEKDYLIVIEKSA [r9_264_TrMRF] | 0.97 ± 0.076 kcal/mol | 1.3 ± 0.1 kcal/mol | 1.14 ± 0.21 kcal/mol
SAGGSAMTLEEARELVERLVRELFPDAEVLDVDAVRLPDRLVLVDAVVRPKYRPDEVLRFRFLLGDSAGGSA [r15_627_TrMRF] | 3.53 ± 0.1 kcal/mol | 4.106 ± 0.032 kcal/mol | 3.94 ± 0.06 kcal/mol
SAGGSAGGSAKKPTAEEILKKLKLPEGAKIVKIEVEYDKKTKKVTIKIEIKVNGKTYTFEIKSAGGSAGGSA [r18_354_TrROS_Hall] | 2.81 ± 0.15 kcal/mol | 4.39 ± 0.11 kcal/mol | 3.94 ± 0.18 kcal/mol
SAGGSAGGSAGKVVLYLPGDGTAWVLKVGDGEAVLEAEPEKVEELLEKIPGTEAVPVPGLSAGGSAGGSAGG [r11_57_TrMRF] | 0.652 ± 0.026 kcal/mol | -0.0929 ± 0.23 kcal/mol | 0.425 ± 0.12 kcal/mol
SAGGMLLKLPLSSVEIPPDASEEEIEEAKRKLAKPKVVKVTEEVLIEENGIVKKVKVTKYVSLSVEESAGGS [r16_387_JUSTAS] | 0.845 ± 0.082 kcal/mol | 0.56 ± 0.29 kcal/mol | 0.87 ± 0.12 kcal/mol
SAGMVLKITVKDKKTKEEREIVIEIPEDDPELKKLGIKSPEELAKKLAEELKKEGIEVEEVKVEAYPLPSAG [r5_722_TrROS_Hall] | 1.23 ± 0.096 kcal/mol | 2.04 ± 0.084 kcal/mol | 1.78 ± 0.25 kcal/mol
SAGGSAGGSAGMTPVEITDPNSDKTYTYDPEKKTLTKYYPGEGKTETFPLTSEEEAKKLLSAGGSAGGSAGG [r11_936_JUSTAS] | -0.536 ± 0.13 kcal/mol | 0.396 ± 0.069 kcal/mol | 0.127 ± 0.08 kcal/mol
SAGGSAGGSAGGGSMTTTTLTFTVPPDVTPEEVRAALEAAGYGDVAVTREGNTWTVTVTSAGGSAGGSAGGS [r10_868_JUSTAS] | 1.56 ± 0.049 kcal/mol | 2.6 ± 0.039 kcal/mol | 2.4 ± 0.1 kcal/mol
SAGGSAGGSAMWVIRIWFPNGNKRTIPIPPNEKLTAEEILDEFRIPNGREMRILRVEIWPYSAGGSAGGSAG [r3_465_TrROS] | 1.967 ± 0.011 kcal/mol | 2.66 ± 0.034 kcal/mol | 2.43 ± 0.042 kcal/mol
SAGGSAKWELSIWIPAPGMTPDKARELARDIAREFAQPGWKVKDIEVEPVNPDENVYRGTVTIEPPSAGGSA [r15_96_TrROS] | 0.951 ± 0.04 kcal/mol | 1.82 ± 0.11 kcal/mol | 1.49 ± 0.13 kcal/mol
SAGGPVFLGFEEALEFIEKAFENGEDVVVVARLPDGGLVVLEASGPDLDLRVVAVIPLPPPEEDPEKYSAGG [r13_839_TrMRF] | 1.5 ± 0.033 kcal/mol | 0.268 ± 0.14 kcal/mol | 1.03 ± 0.091 kcal/mol
SAGGSAGGSAMSVVVKYTVLLTDPVTGKTTVVPVTATLPVSDGTAKTIEEIVAEHPNYEILESAGGSAGGSA [r18_267_JUSTAS] | 1.81 ± 0.068 kcal/mol | 1.3 ± 0.026 kcal/mol | 1.56 ± 0.039 kcal/mol
SAGGSAGGSMKKIKVKIKITDKDGNKKEVEAEIFFDEETGKLYIKLPNGEVKEISLEDIEIVESAGGSAGGS [r12_256_TrROS_Hall] | 2.46 ± 0.08 kcal/mol | 4.01 ± 0.069 kcal/mol | 3.63 ± 0.09 kcal/mol
SAGGMPAKAVTTKLPDGTDRITVTTVGSGKSATIPVPAGELKVIEIEEGEETLSVSFVEVGPDNPELGSAGG [r13_122_TrMRF] | -0.426 ± 0.044 kcal/mol | 0.374 ± 0.014 kcal/mol | 0.104 ± 0.056 kcal/mol
SAGGSAGGSAGKIEIYPNDNQYYIKITVPRRNPNNGKWERQERTIPMPPDQAKELLKNGISAGGSAGGSAGG [r11_389_TrROS] | 0.0667 ± 0.14 kcal/mol | -0.439 ± 0.45 kcal/mol | -0.17 ± 0.3 kcal/mol
SAGGSAKKPKPGRLFLRYEEPEKGEVVEAVLTVYPNNVVELEVRRPDGKPVPLEKALKLLKELGLLSAGGSA [r15_872_TrMRF] | 1.54 ± 0.046 kcal/mol | 2.12 ± 0.1 kcal/mol | 1.86 ± 0.14 kcal/mol
SAGGSGRQMVRNIVRHALDQQQQHGKPIDKIYIFGPPNMRKEIKKELEEEGLPPGVKITIVPAEDMQSAGGS [r16_164_TrROS] | 0.761 ± 0.13 kcal/mol | 0.101 ± 0.51 kcal/mol | 0.326 ± 0.37 kcal/mol
